Assay [1] addresses T1, HLA B*3501 presenting HCMV pp65 peptide … on cells (Homo sapiens HLA-B*35:01 and B2M on …, strain).
T1 construct: copies: + +
Briefly: flow cytometry on cells. Particulars: one partner purified. On the technique in general: A flow cytometer gives signals particle by particle.

The target in assay [2] is T2, biotinylated HLA B*0801/HCMV IE1 peptide … complex (Homo sapiens HLA-B*08:01 and B2M; HCMV …, strain, biotin (in vivo, BirA, AviTag)).
T2 construct: copies: + +
In words: ELISA. Particulars: both partners purified.

Assay [3] deals with T3, HLA A*2402 presenting HCMV pp65 peptide … on cells (Homo sapiens HLA-A*24:02/B2M; HCMV pp65 …, strain).
T3 construct: copies: + +
In words: flow cytometry on cells. Particulars: one partner purified.

For assay [4], the target named is T4, biotinylated HLA A*2402/HCMV pp65 peptide … complex (Homo sapiens HLA-A*24:02/B2M; HCMV pp65 …, strain, biotin (in vivo, BirA, AviTag)).
T4 construct: copies: + +
In words: ELISA. Particulars: both partners purified.

B1: biotinylated Fab C5 (Fab, V domains shown)
VH: EVQLVQSGAEVKRPGASVKVSCKASGYTFTNYDINWVRQATGQGLEWMGWMNPNSGNTGYAQKFQGRVTITADKSTSTAYMELSSLRSEDTAVYYCARQGRLRFLEWYMFDPWGQGTLVTVSS
VL: DVVMTQSPLSLPVTPGEPASISCRSSQSLLHSNGYNYLDWYLQKPGQSPQLLIYLGSIRASGVPDRVTGSGSGTDFTLQISRVEAEDVGVYYCMQGLQTPYTFGQGTKLEIK
notes: source: E. coli TG1, biotinylated in vivo, purified (IMAC, Talon beads)
Consider B1, for which the binding result in assay [1] is recorded as “binds”.

B2: Fab 2A2 (Fab, V domains shown)
VH: QVQLVQSGAEVKKPGASVKVSCKASGYTFTDYYVHWVRQAPGQGLEWMGRINPNSGGTNYAQKFQGRVTMTRDASISTAYMELSRLRSDDTAVYYCAREMGYGGKSEDYWGQGTLVTVSS
VL: SYVLTQPPSLSVAPGKTARIICGGNNIGSKSVHWYQQKPGQPPVLVVHDDGDRPSGIPERFSGSNSGITATLTITGVEAGDEADYYCQVWDYSSDHVIFGGGTKLTVL
notes: source: E. coli TG1, purified (IMAC, Talon beads)
For B2, in assay [2], the binding result is “binds”.

B3: biotinylated Fab C12.2 (Fab, V domains shown)
VH: QITLKESGPTLVKPTQTLTLTCTFSGFSLSTSGVAVGWIRQPPGKALEWLALIYWDDDKHYSPSLKNRLTITKDTSKNQVVLTLTNMDPVDTATYYCARMTYSGSWYSFYYFDYWGQGTLVTVSS
VL: EIVLTQSPATLSFSPGERATLSCRASQSVGSYLAWYQQRPGQAPRPLIYDATNRATGIPTRFSGSGSGTDFTLTISSLEPEDFATYYCQHRRTFGRGTKLEIK
notes: as for B1
As for B3, the binding result in assay [3] is listed as “binds”.

B4: Fab C12/2 (Fab, V domains shown)
VH: B3 VH
VL: B3 VL
For the molecule B4, in assay [4], the binding result is listed as “binds”.

The values are drawn from article PMC7347513 (Cancer Immunology, Immunotherapy : CII, 2020).
